Laboratory results reported in patent publication US20190040368.

Molecular target: T1, recombinant human iduronate-2 sulfatase (rhIDS)
T1 chain: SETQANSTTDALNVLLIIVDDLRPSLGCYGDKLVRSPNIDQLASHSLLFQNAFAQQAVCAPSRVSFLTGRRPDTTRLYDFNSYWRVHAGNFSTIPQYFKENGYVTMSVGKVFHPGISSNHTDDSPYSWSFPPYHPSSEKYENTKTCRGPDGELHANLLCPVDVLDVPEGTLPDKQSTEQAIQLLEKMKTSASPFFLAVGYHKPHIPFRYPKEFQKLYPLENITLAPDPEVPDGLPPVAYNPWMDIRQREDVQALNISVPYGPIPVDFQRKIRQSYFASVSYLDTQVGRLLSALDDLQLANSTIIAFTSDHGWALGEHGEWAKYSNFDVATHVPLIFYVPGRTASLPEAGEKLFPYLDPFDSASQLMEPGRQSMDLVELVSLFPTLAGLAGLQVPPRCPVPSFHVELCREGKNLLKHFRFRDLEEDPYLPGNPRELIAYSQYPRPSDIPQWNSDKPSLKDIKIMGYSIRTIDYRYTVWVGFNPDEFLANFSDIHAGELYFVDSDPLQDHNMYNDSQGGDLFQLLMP

B1: MNS1-BtFGE-6xHis fusion construct (protein)
chain: MSFNIPKTTPNFSAKARKLEDQLWQASGLEKSKDSTLPLYKDKPYGEGFVARTTSGRRRRNIIYGVVVGLLFWAIYTFSRSLDGNVSLKDGIKDYEFKGWKGRGKPKTNWVAEQNAVKQAFVDSWNGYHKYAWGKDVYKPQTKTGKNMGPKPLGWFIVDSLDSGGEEAGPEAGAPSLVGSCGCGNPQRPGAQGSSAAAHRYSREANAPGSVPGGRPSPPTKMVPIPAGVFTMGTDDPQIKQDGEAPARRVAIDAFYMDAYEVSNAEFEKFVNSTGYLTEAEKFGDSFVFEGMLSEQVKSDIQQAVAAAPWWLPVKGANWRHPEGPDSTVLHRPDHPVLHVSWNDAVAYCTWAGKRLPTEAEWEYSCRGGLQNRLFPWGNKLQPKGQHYANIWQGEFPVTNTGEDGFRGTAPVDAFPPNGYGLYNIVGNAWEWTSDWWTVHHSAEETINPKGPPSGKDRVKKGGSYMCHKSYCYRYRCAARSQNTPDSSASNLGFRCAADHLPTTGADHLPTTGHHHHHH
% FGly conversion; one copy of rhIDS and 2 copies of BtFGE-MNS1: 100% FGly conversion
% active rhIDS (4MU activity against ELISA); 1 copy rhIDS, 2 copy BtFGE-MNS1 (POX/Hp4d): 98%
% activity of rhIDS; one copy of rhIDS and 2 copies of BtFGE-MNS1: 81.5% activity

B2: Tupaia chinensis Lip2-TupFGE-His6-HDEL fusion construct (protein)
chain: EEARTGAGATSAQGPCGCGTPQRPGSHGSSAAAHRYSREANVPGPVPGERQPEATKMVPIPAGVFTMGTDDPQIKQDGEAPARRVAIDAFYMDAYEVSNAEFEKFVNSTGYLTEAEKFGDSFVFEGMLSEQVKTGIQQAVAAAPWWLPVKGANWRHPEGPDSTILHRADHPVLHVSWNDAVAYCTWAGKRLPTEAEWEYSCRGGLQNRLFPWGNKLQPRGQHYANIWQGEFPVTNTAEDGFQGTAPVDAFPPNGYGLYNIVGNAWEWTSDWWTVYHSVEETLNPKGPPSGKDRVKKGGSYMCHKSYCYRYRCAARSQNTPDSSASNLGFRCAADRLPTHHHHHHHDEL
% activity of rhIDS; co-expression with TupFGE: 51%

B3: Lip2pre-6xHis-BtFGE-WBP1 fusion construct (protein)
chain: MKLSTILFTACATLAAAHHHHHHAGGEEAGPEAGAPSLVGSCGCGNPQRPGAQGSSAAAHRYSREANAPGSVPGGRPSPPTKMVPIPAGVFTMGTDDPQIKQDGEAPARRVAIDAFYMDAYEVSNAEFEKFVNSTGYLTEAEKFGDSFVFEGMLSEQVKSDIQQAVAAAPWWLPVKGANWRHPEGPDSTVLHRPDHPVLHVSWNDAVAYCTWAGKRLPTEAEWEYSCRGGLQNRLFPWGNKLQPKGQHYANIWQGEFPVTNTGEDGFRGTAPVDAFPPNGYGLYNIVGNAWEWTSDWWTVHHSAEETINPKGPPSGKDRVKKGGSYMCHKSYCYRYRCAARSQNTPDSSASNLGFRCAADHLPTTGADHLPTTGFTMLNPYYRLTLEQTGTTNFSAIYSTTFKIPDQHGVFTFNLDYKRPGYTFIEEKTRATIRHTANDEWPRSWEITNSWVYLTSAVMVVIAWFLFVVFYLFVGKADKEAVHKQ
% active rhIDS (4MU activity against ELISA); 1 copy rhIDS, 2 copy BtFGE-WBPI (POX/Hp4d): 124%

B4: Columba livia Lip2-C1FGE-His6-HDEL fusion construct (protein)
chain: MVVIPGGVFTMGTDEPAIQQDGEWPVRKVHVNSFYMDRYEVSNEDFERFVNSTGYVTEAEKFGDSFVFEGMLSEEVKAEIHQAVAAAPWWLPVKGANWKHPEGPDSNISNRMDHPVLHVSWNDAVAFCTWAGKRLPTEAEWEYSCRGGLENRLFPWGNKLQPKGQHYANIWQGVFPTNNTAEDGYKGTAPVTAFPPNGYGLYNIVGNAWEWTADWWAVHHSTEEVHNPKGPSSGTDRVKKGGSYMCHKSYCYRYRCAARSQNTPDSSASNLGFRCAADASPELPHHHHHHHDEL
% activity of rhIDS; co-expression with ClFGE: 61%

B5: Streptomyces coelicolor FGE fusion protein (Lip2pre-ScFGE-6HIS-HDEL) (protein)
chain: MAVAAPSPAAAAEPGPAARPRSTRGQVRLPGGEFAMGDAFGEGYPADGETPVHTVRLRPFHIDETAVTNARFAAFVKATGHVTDAERFGSSAVFHLVVAAPDADVLGSAAGAPWWINVRGAHWRRPEGARSDITGRPNHPVVHVSWNDATAYARWAGKRLPTEAEWEYAARGGLAGRRYAWGDELTPGGRWRCNIWQGRFPHVNTAEDGHLSTAPVKSYRPNGHGLWNTAGNVWEWCSDWFSPTYYAESPTVDPHGPGTGAARVLRGGSYLCHDSYCNRYRVAARSSNTPDSSSGNLGFRCANDADLTSGSAAEHHHHHHHDEL
active rhIDS (4MU fluorogenic activity assay against sandwich ELISA), co-expression in Y. lipolytica: All Y. lipolytica strains co-expressing rFGE with rhIDS resulted in the expression of active rhIDS.

B6: Monodelphis domestica Lip2-MdFGE-His6-HDEL fusion construct (protein)
chain: AARGLGSEAGSAAADAAHPAGTCGCGSPQRPGTAAHRYSREANVAEPASAERPVLTSQMAHIPAGVFTMGTDEPQIKQDGEGPARRVRINSFYMDLYEVSNAEFERFVNSTGYVTEAEKFGDSFVFDSMLSDQVKSDIHQAVAAAPWWLPVKGANWRHPEGPDSSILHRRDHPVLHVSWNDAVAYCTWAGKRLPTEAEWEYSCRGGLENRLFPWGNKLQPKGQHYANIWQGEFPVSNTGEDGYQGTAPVTAFPPNGYGLYNIVGNAWEWTSDWWTVHHSADETLDPKGPPSGSDRVKKGGSYMCHKSYCYRYRCAARSQNTPDSSASNLGFRCAADRLPDTHHHHHHHDEL
% activity of rhIDS; co-expression with MdFGE: 58%

B7: Human FGE fusion protein (Lip2pre-hFGE-HDEL) (protein)
chain: SQEAGTGAGAGSLAGSCGCGTPQRPGAHGSSAAAHRYSREANAPGPVPGERQLAHSKMVPIPAGVFTMGTDDPQIKQDGEAPARRVTIDAFYMDAYEVSNTEFEKFVNSTGYLTEAEKFGDSFVFEGMLSEQVKTNIQQAVAAAPWWLPVKGANWRHPEGPDSTILHRPDHPVLHVSWNDAVAYCTWAGKRLPTEAEWEYSCRGGLHNRLFPWGNKLQPKGQHYANIWQGEFPVTNTGEDGFQGTAPVDAFPPNGYGLYNIVGNAWEWTSDWWTVHHSVEETLNPKGPPSGKDRVKKGGSYMCHRSYCYRYRCAARSQNTPDSSASNLGFRCAADRLPTMDHDEL
active rhIDS (4MU fluorogenic activity assay against sandwich ELISA), co-expression in Y. lipolytica: All Y. lipolytica strains co-expressing rFGE with rhIDS resulted in the expression of active rhIDS.

B8: Gallus gallus Lip2-GgFGE-His6-HDEL fusion construct (protein)
chain: GKETAPGGNCGCSASRSRGGEREAVATVRRYSAAANDGRSSGRGPMVAIPGGVFTMGTDEPEIQQDGEWPARRVHVNSFYMDQYEVSNQEFERFVNSTGYLTEAEKFGDSFVFEGMLSEEVKAEIHQAVAAAPWWLPVKGANWRQPEGPGSSILSRMDHPVLHVSWNDAVAFCTWAGKRLPTEAEWEYGCRGGLEKRLFPWGNKLQPKGQHYANIWQGVFPTNNTAEDGYKGTAPVTAFPPNGYGLYNIVGNAWEWTSDWWAVHHSADEAHNPKGPSSGTDRVKKGGSYMCHKSYCYRYRCAARSQNTPDSSASNLGFRCAADALPDPQHHHHHHHDEL
% activity of rhIDS; co-expression with GgFGE: 33%

B9: Hemicentrotus pulcherrimus FGE fusion protein (Lip2pre-HpFGE-6HIS-HDEL) (protein)
chain: ENEDINQNISPTQSHTTATTEEELAEARGEEIDSDPTSEGSGAGEGCGCGSSALNRNHDEDALGLALEENLHDHVQEGAALKYSREANDPISMDHPEANVGAFPRTNQMNFIEGGTFRMGTDKAKIYLDGESPSRLVTLDPYYFDVYEVSNSEFELFVNTTSYITEAEKFGDSFVLEARISEEVKKDISQVVAAAPWWLPVKGAEWRHPEGPDSSISSRMDHPVTHISWNDATAYCQWAGKRLPTEAEWENAARGGLNNRLFPWGNKLMPKDHHRVNIWQGEFPKVNTAEDGYEGTCPVTAFEPNGYGLYNTVGNAWEWVADWWTTVHSPESQNNPVGPDEGTDKVKKGGSYMCHISYCYRYRCEARSQNSPDSSACNLGFRCAATNLPEDIPCSNCNDSTPHHHHHHHDEL
% FGly conversion (nano-LC MS); strain T148 (OXYY1801; HpFGE): 8.1%
% FGly conversion (nano-LC MS); strain T148 (OXYY1801; HpFGE) (20° C.): 68.1%
% FGly conversion (nano-LC MS); strain T148 (OXYY1801; HpFGE), duplicate: 3.72%
% FGly conversion-re-analyzed samples; DG29U7#7, OXYY1801; HpFGE: 19.2%
% FGly conversion-re-analyzed samples; DG33U1#6, OXYY1801, HpFGE: 8.3%
% FGly conversion-re-analyzed samples; DG33U3#6, OXYY1801; HpFGE (20° C.): 84.5%
active rhIDS (4MU fluorogenic activity assay against sandwich ELISA), co-expression in Y. lipolytica: All Y. lipolytica strains co-expressing rFGE with rhIDS resulted in the expression of active rhIDS.

B10: Chimeric Lip2pre-BtFGE-HpFGE-6xHis-HDEL fusion construct (protein)
chain: MKLSTILFTACATLAAAAGGEEAGPEAGAPSLVGSCGCGNPQRPGAQGSSAAAHRYSREANAPGSVPGGRPSPPTKMVPIPAGVFTMGTDKAKIYLDGESPSRLVTLDPYYFDVYEVSNSEFELFVNTTSYITEAEKFGDSFVLEARISEEVKKDISQVVAAAPWWLPVKGAEWRHPEGPDSSISSRMDHPVTHISWNDATAYCQWAGKRLPTEAEWENAARGGLNNRLFPWGNKLMPKDHHRVNIWQGEFPKVNTAEDGYEGTCPVTAFEPNGYGLYNTVGNAWEWVADWWTTVHSPESQNNPVGPDEGTDKVKKGGSYMCHISYCYRYRCEARSQNSPDSSACNLGFRCAATNLPEDIPCSNCNDSTPHHHHHHHDEL
% active rhIDS (4MU activity against ELISA); 1 copy rhIDS, 2 copy ChFGE (POX/Hp4d)-20° C.: 0%
% active rhIDS (4MU activity against ELISA); 1 copy rhIDS, 2 copy ChFGE (POX/Hp4d)-28° C.: 0%
